{"source": "paper PMC4457860", "about": "“In Vitro Interaction of the Housekeeping SecA1 with the Accessory SecA2 Protein of Mycobacterium tuberculosis” (PLoS ONE, 2015)", "molecules": {"B1": {"name": "Mycobacterium tuberculosis SecA2(S802C) labeled with AlexaFluor 488 (protein)", "chain": "MVPKTTRAQPGRLSSRFWRLLGASTEKNRSRSLADVTASAEYDKEAADLSDEKLRKAAGLLNLDDLAESADIPQFLAIAREAAERRTGLRPFDVQLLGALRMLAGDVIEMATGEGKTLAGAIAAAGYALAGRHVHVVTINDYLARRDAEWMGPLLDAMGLTVGWITADSTPDERRTAYDRDVTYASVNEIGFDVLRDQLVTDVNDLVSPNPDVALIDEADSVLVDEALVPLVLAGTTHRETPRLEIIRLVAELVGDKDADEYFATDSDNRNVHLTEHGARKVEKALGGIDLYSEEHVGTTLTEVNVALHAHVLLQRDVHYIVRDDAVHLINASRGRIAQLQRWPDGLQAAVEAKEGIETTETGEVLDTITVQALINRYATVCGMTGTALAAGEQLRQFYQLGVSPIPPNKPNIREDEADRVYITTAAKNDGIVEHITEVHQRGQPVLVGTRDVAESEELHERLVRRGVPAVVLNAKNDAEEARVIAEAGKYGAVTVSTQMAGRGTDIRLGGSDEADHDRVAELGGLHVVGTGRHHTERLDNQLRGRAGRQGDPGSSVFFSSWEDDVVAANLDHNKLPMATDENGRIVSPRTGSLLDHAQRVAEGRLLDVHANTWRYNQLIAQQRAIIVERRNTLLRTVTAREELAELAPKRYEELSDKVSEERLETICRQIMLYHLDRGWADHLAYLADIRESIHLRALGRQNPLDEFHRMAVDAFASLAADAIEAAQQTFETANVLDHEPGLDLSKLARPTSTWTYMVNDNPLSDDTLSALCLPGVFR"}, "B2": {"name": "Mycobacterium tuberculosis SecA2 (unlabeled) (natural protein)", "chain": "B1 chain with C773S", "notes": "No tag; molecular mass 85 kDa on SDS-PAGE; also called PIP152"}}, "key": {"[1]": {"target": "Mycobacterium tuberculosis SecA1(S945C) labeled with Cy5 (Mycobacterium tuberculosis strain H37Rv) (UniProt P9WGP5)", "experiment": "MST; as the low salt experiment, but at moderate salt concentration (150 mM KCl); dimer to monomers"}, "[2]": {"target": "Mycobacterium tuberculosis SecA1(S945C) labeled with Cy5 (Mycobacterium tuberculosis strain H37Rv) (UniProt P9WGP5)", "experiment": "MST; Monolith NT.115; unlabeled protein (1 nM to 5 μM) titrated into 25 nM Cy5-labeled protein, mixed in 300 mM KCl, then diluted into low salt buffer (25 mM HEPES-KOH pH 7.5, 30 mM KCl, 2 mM MgCl2, 50 mM arginine); Hill fit, apparent Kd; dimer to monomers"}, "[3]": {"target": "Mycobacterium tuberculosis SecA2(S802C) labeled with Cy5 (Mycobacterium tuberculosis strain H37Rv) (UniProt P9WGP3)", "experiment": "MST; Monolith NT.115; unlabeled protein (1 nM to 5 μM) titrated into 25 nM Cy5-labeled protein, mixed in 300 mM KCl, then diluted into low salt buffer (25 mM HEPES-KOH pH 7.5, 30 mM KCl, 2 mM MgCl2, 50 mM arginine); Hill fit, apparent Kd; dimer to monomers"}, "[4]": {"target": "Mycobacterium tuberculosis SecA1(S945C) labeled with Cy5, P9WGP5", "experiment": "fluorescence cross-correlation spectroscopy (FCCS); SecA1-Cy5 and SecA2-AF488 mixed 1:1 in 300 mM KCl, exchanged on NAP5 into 25 mM HEPES-KOH pH 7.5, 30 mM KCl, 2 mM MgCl2, 50 mM arginine; 10 min at room temperature; LSM710 confocal microscope", "details": "other: fluorescence cross-correlation spectroscopy (FCCS)"}, "[5]": {"target": "T1, Mycobacterium tuberculosis SecA2(S802C) labeled with Cy5 (Mycobacterium tuberculosis strain H37Rv, UniProt P9WGP3 31-808, S802C, Cy5 (Cy5-maleimide label))", "T1 construct": "also called SecA2-Cy5; PIP154", "T1 sequence": "B1 chain", "experiment": "MST; as the low salt experiment, but at moderate salt concentration (150 mM KCl); dimer to monomers", "details": "both partners purified"}, "[6]": {"target": "Mycobacterium tuberculosis SecA1(S945C) labeled with Cy5 (Mycobacterium tuberculosis strain H37Rv) (UniProt P9WGP5)", "experiment": "MST; Monolith NT.115; unlabeled protein (1 nM to 5 μM) titrated into 25 nM Cy5-labeled protein, mixed in 300 mM KCl, then diluted into low salt buffer (25 mM HEPES-KOH pH 7.5, 30 mM KCl, 2 mM MgCl2, 50 mM arginine); Hill fit, apparent Kd; dimer to monomers", "remark": "listed apart in the source"}, "[7]": {"target": "T1, Mycobacterium tuberculosis SecA2(S802C) …", "experiment": "MST; Monolith NT.115; unlabeled protein (1 nM to 5 μM) titrated into 25 nM Cy5-labeled protein, mixed in 300 mM KCl, then diluted into low salt buffer (25 mM HEPES-KOH pH 7.5, 30 mM KCl, 2 mM MgCl2, 50 mM arginine); Hill fit, apparent Kd; dimer to monomers", "details": "both partners purified"}}, "note": "Positions count from the first letter of the chain named. Numbers in names are those of the source.", "data": [{"molecule": "Mycobacterium tuberculosis SecA1 (unlabeled) (from UniProt P9WGP5 1-949) (natural protein)", "values": [{"measurement": "Kd", "setting": "[1]", "value": 298, "unit": "nM"}, {"measurement": "Kd", "setting": "[2]", "value": 65, "unit": "nM"}, {"measurement": "Kd", "setting": "[3]", "value": 438, "unit": "nM"}]}, {"molecule": "B1", "values": [{"measurement": "percent of all proteins co-migrating as heterodimers", "setting": "[4]", "value": "12% of all proteins co-migrated as heterodimers"}]}, {"molecule": "B2", "values": [{"measurement": "Kd", "setting": "[5]", "value": "618 ± 36.5", "unit": "nM"}, {"measurement": "Kd", "setting": "[6]", "value": 378, "unit": "nM"}, {"measurement": "Kd", "setting": "[7]", "value": "161 ± 6.2", "unit": "nM"}]}]}
